Laboratory results taken from the supplement of paper PMC7877785.
± gives the uncertainty stated by the source.

Assay: self-splicing fitness, log relative to wild type (ln ratio); higher = more splicing; Tetrahymena group I intron in knt gene, E. coli kanamycin selection, DiMSum; sequences stand for … in CUCUCU…GGAGGGAAAAGUUAUCAGGCAUGCACCUGGUAGCUAGUCUUUAAACCAAUAGAUUGCAUCGGUUUAAAAGGCAAGACCGUCAAAUUGCGGGAAAGGGGUCAACAGCCGUUCAGUACCAAGUCUCAGGGGAAACUUUGAGAUGGCCUUGCAAAGGGUAUGGUAAUAAGCUGACGGACAUGGUCCUAACCACGCAGCCAAGUCCUAAGUCAACAGAUCUUCUGUUGAUAUGGAUGCAGUUCACAGACUAAAUGUCGGUCGGGGAAGAUGUAUUCUUCUCAUAAGAUAUAGUCGGACCUCUCCUUAAUGGGAGCUAGCGGAUGAAGUGAUGCAACACUGGAGCCGCUGGGAACUAAUUUGUAUGCGAAAGUAUAUUGAUUAGUUUUGGAGUACUCGUGGUCG
Procedure, shortened: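 Pooled colonies went to amplicon sequencing on an Illumina HiSeq 2500 after six replicate transformations. The plates were LB agar with 100 μg/mL carbenicillin, 50 μM IPTG and 0.2% rhamnose, with or without 25 μg/mL kanamycin, incubated overnight at 37°C or 30°C. The E. coli BL21(DE3) library had all eight P1ex-region intron nucleotides randomised, the intron placed in the knt kanamycin-resistance gene on pET-22b(+). DiMSum fitness is the error-weighted combination of replicate fold changes, kanamycin against none, normalised to wild type.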

Sequence | self-splicing fitness (ln) (30 °C) | self-splicing fitness (ln) (37 °C)
AAUCAGCAAUAUUACGCUCA | 0.294 ± 0.074 | 0.323 ± 0.1
GGACAGCAAUAUUACGACGU | -0.177 ± 0.06 | 0.587 ± 0.075
AUUUAGCAAUAUUACGUGCG | -1.82 ± 0.091 | -0.316 ± 0.12
UUUUAGCAAUAUUACGUUCA | -1.18 ± 0.21 | -0.458 ± 0.22
AAGUAGCAAUAUUACGCGAC | -3.11 ± 0.31 | -1.7 ± 0.36
CAGAAGCAAUAUUACGUUGU | -3.38 ± 0.13 | -2.81 ± 0.15
UAAGAGCAAUAUUACGUCUA | -0.273 ± 0.093 | -0.548 ± 0.1
GUAUAGCAAUAUUACGAAAA | – | -1.18 ± 0.22
GGCAAGCAAUAUUACGGACC | -1.77 ± 0.18 | -0.606 ± 0.2
AGAAAGCAAUAUUACGAAGU | -3.61 ± 0.27 | -2.15 ± 0.21
GCGUAGCAAUAUUACGCGUG | -4.06 ± 0.28 | -2.71 ± 0.15
UGGGAGCAAUAUUACGGGAC | -4.71 ± 0.46 | -2.7 ± 0.38
GCACAGCAAUAUUACGCGGC | -4.04 ± 0.43 | -1.84 ± 0.26
UAGGAGCAAUAUUACGGAUC | -3.44 ± 0.41 | -0.998 ± 0.39
CUUGAGCAAUAUUACGGCUG | -1.55 ± 0.14 | -1.46 ± 0.19
CGUGAGCAAUAUUACGCGUG | -2 ± 0.13 | -0.684 ± 0.1
CCUAAGCAAUAUUACGCUUA | -3.09 ± 0.18 | -1.97 ± 0.29
CGCAAGCAAUAUUACGGUCC | -1.07 ± 0.076 | -0.628 ± 0.12
GAAAAGCAAUAUUACGGAAU | -2.81 ± 0.13 | -1.07 ± 0.1
GGACAGCAAUAUUACGAGUC | -4.31 ± 0.2 | -2.75 ± 0.15
AGUGAGCAAUAUUACGUCUC | – | -2.46 ± 0.36
CGGUAGCAAUAUUACGCGCG | -2.49 ± 0.31 | -1.87 ± 0.22
UCCGAGCAAUAUUACGUCAU | -3.59 ± 0.27 | -2.75 ± 0.44
CAGGAGCAAUAUUACGAUAA | -3.33 ± 0.2 | -1.88 ± 0.16
AUCCAGCAAUAUUACGUGCU | -2.83 ± 0.17 | -2.88 ± 0.31
AUUUAGCAAUAUUACGGCAG | -2.47 ± 0.14 | -0.321 ± 0.15

Sequence | self-splicing fitness (ln) (30 °C) | self-splicing fitness (ln) (37 °C)
AGUAAGCAAUAUUACGAUUA | -0.948 ± 0.082 | 0.25 ± 0.092
GGGCAGCAAUAUUACGUAAA | -0.819 ± 0.09 | -0.375 ± 0.11
ACUUAGCAAUAUUACGGUCC | -2.46 ± 0.12 | -1.33 ± 0.12
GGGUAGCAAUAUUACGCCGG | -4.18 ± 0.39 | -2.03 ± 0.24
GUCCAGCAAUAUUACGUUCU | -2.35 ± 0.09 | -0.777 ± 0.08
UUAAAGCAAUAUUACGUUGU | -3.19 ± 0.13 | -1.4 ± 0.13
UGCUAGCAAUAUUACGGUCC | -2.01 ± 0.19 | 0.11 ± 0.21
CUCGAGCAAUAUUACGGGCU | -3.17 ± 0.23 | -3.24 ± 0.42
GGCUAGCAAUAUUACGCCCG | -4.06 ± 0.47 | -3.68 ± 0.26
CCCCAGCAAUAUUACGAAGU | -3.84 ± 0.18 | -3.21 ± 0.2
CCUCAGCAAUAUUACGGCAC | -3.55 ± 0.15 | -2 ± 0.17
GUCCAGCAAUAUUACGAUUA | -0.767 ± 0.074 | -0.551 ± 0.077
GUGUAGCAAUAUUACGUUCA | -0.405 ± 0.14 | -0.597 ± 0.13
GACCAGCAAUAUUACGCCUA | -0.572 ± 0.11 | 0.226 ± 0.12
CCCGAGCAAUAUUACGGGGC | -3.75 ± 0.19 | -2.74 ± 0.17
GAUGAGCAAUAUUACGUCGU | -2.4 ± 0.15 | -2.13 ± 0.17
AGAGAGCAAUAUUACGGCGG | -2.77 ± 0.48 | –
CGAAAGCAAUAUUACGUGAC | -3.45 ± 0.12 | -2.22 ± 0.13
UACGAGCAAUAUUACGUACG | -3.76 ± 0.23 | -2.34 ± 0.18
AAUGAGCAAUAUUACGGAAC | -3.52 ± 0.47 | –
AUGUAGCAAUAUUACGGUUU | -0.83 ± 0.085 | -0.694 ± 0.1
UGGGAGCAAUAUUACGUACG | -2.41 ± 0.26 | -2.34 ± 0.21
GUUCAGCAAUAUUACGAAGU | -0.606 ± 0.098 | -0.391 ± 0.12
CCGGAGCAAUAUUACGAAAA | – | -2.99 ± 0.48
UCCUAGCAAUAUUACGAGGU | -3.53 ± 0.19 | -1.45 ± 0.13
UUCUAGCAAUAUUACGAACC | – | -1.8 ± 0.33

Sequence | self-splicing fitness (ln) (30 °C) | self-splicing fitness (ln) (37 °C)
CCGUAGCAAUAUUACGGUUC | -2.21 ± 0.2 | -2.04 ± 0.26
GUCAAGCAAUAUUACGGUCU | -2.7 ± 0.084 | -0.906 ± 0.075
GGUGAGCAAUAUUACGUAUU | -1.96 ± 0.31 | -1.94 ± 0.47
AUCGAGCAAUAUUACGCCUG | -3.45 ± 0.36 | -1.78 ± 0.22
UUGCAGCAAUAUUACGUAUC | -3.83 ± 0.16 | -2.4 ± 0.15
GUCGAGCAAUAUUACGGCAU | -1.04 ± 0.067 | 0.111 ± 0.083
AGGUAGCAAUAUUACGGGGA | -3.342 ± 0.031 | -2.42 ± 0.039
AGCGAGCAAUAUUACGUCUU | -2.73 ± 0.16 | -2.08 ± 0.18
ACCUAGCAAUAUUACGAGUG | -1.43 ± 0.077 | -0.982 ± 0.092
CUAUAGCAAUAUUACGGCAG | -1.51 ± 0.13 | -0.425 ± 0.13
GCGCAGCAAUAUUACGUGGG | -2.53 ± 0.1 | -1.6 ± 0.11
CUGCAGCAAUAUUACGCCAA | – | -1.67 ± 0.18
UCUGAGCAAUAUUACGGUGC | -4.39 ± 0.39 | -2.45 ± 0.25
CAGUAGCAAUAUUACGAACG | -0.0483 ± 0.12 | -0.375 ± 0.14
AUUGAGCAAUAUUACGCCCA | -2.25 ± 0.25 | -1.39 ± 0.39
GGGUAGCAAUAUUACGUCUC | -0.431 ± 0.28 | 0.223 ± 0.43
AAUCAGCAAUAUUACGAGGA | -2.13 ± 0.12 | -1.23 ± 0.11
AAAAAGCAAUAUUACGCGAA | -2.07 ± 0.12 | -1.19 ± 0.16
CAUCAGCAAUAUUACGCCGC | -3.14 ± 0.36 | –
UUCAAGCAAUAUUACGAGAA | -1.84 ± 0.3 | -1.61 ± 0.37
UUGGAGCAAUAUUACGUUCA | -2.45 ± 0.4 | -1 ± 0.31
UACAAGCAAUAUUACGCGGU | -3.61 ± 0.16 | -2.61 ± 0.18
CUAUAGCAAUAUUACGACCG | 0.239 ± 0.18 | 0.785 ± 0.27
CUCUAGCAAUAUUACGGCUA | -2.32 ± 0.26 | -1.28 ± 0.24
UCCUAGCAAUAUUACGCUGG | -3.84 ± 0.42 | -2.29 ± 0.32
ACGGAGCAAUAUUACGUCAC | -3.48 ± 0.31 | -2.42 ± 0.45
